To fix the notation:
B1: MLXBIR3SG (ML-IAP chimera: ML-IAP framework with XIAP-BIR3 residues 336-348 in place of 160-179, and S150G) (other)
chain: MGSSHHHHHHSSGLVPRGSHMLETEEEEEEGAGATLSRGPAFPGMGSEELRLASFYDWPLTAEVPPELLAAAGFFHTGHQDKVRCFFCYGGLQSWKRGDDPWTEHAKWFPGCQFLLRSKGQEYINNIHLTHSL
notes: also called ML-IAP-BIR/XIAP-BIR3 chimera protein; His6-tagged MLXBIR3SG

Test [1] concerns the target B1. Nature of the test: TR-FRET competition against biotinylated Smac peptide AVPIAQK-biotin on His6-tagged MLXBIR3SG. On the procedure: Time-Resolved Fluorescence Resonance Energy Transfer (TR-FRET) competition experiments (Kolb et al., (1996) J. Biomol. Screening 1 (4): 203-210) were performed on the Wallac Victor2 Multilabeled Counter Reader™ (Perkin Elmer Life and Analytical Sciences, Inc.). […] Alternatively, this cocktail can be made using optimized concentrations of europium-labeled anti-His₆ antibody (Perkin Elmer) instead of the anti-His₆ antibody-allophycocyanin conjugate, and streptavidin-allophycocyanin conjugate (Perkin Elmer) instead of europium-labeled streptavidin. The reagent cocktail was incubated at room temperature for 30 minutes. […] After a 90 minute incubation at room temperature, the fluorescence was read with filters for the excitation of europium (340 nm) and for the emission wavelengths of europium (615 nm) and allophycocyanin (665 nm). Data are calculated as a ratio of the emission signal of allophycocyanin at 665 nm to the emission signal of europium at 615 nm (these ratios are multiplied by a factor of 10,000 for ease of data manipulation). The resulting values were plotted as a function of antagonist concentration and fit to a 4-parameter equation using Kaleidagraph™ software (Synergy Software, Reading, Pa.). Indications of antagonist potency were determined from the IC₅₀ values.
(In TR-FRET formats the signal depends on donor and acceptor labels being close together.)

Test [2] concerns the target T1, 5-carboxyflourescein-conjugated AVPFAK(5-FAM)K (Hid-FAM) (5-carboxyfluorescein (5-FAM) on Lys 6).
T1 construct: also called HID-FAM probe; Hid-based 5-carboxyfluorescein-labeled peptide
Briefly: fluorescence polarization, BIR protein titrated onto 5 nM Hid-FAM. The protocol:
Polarization experiments were performed on an Analyst™ HT 96-384 (Molecular Devices Corp.). […] The reactions were read after an incubation time of 10 minutes at room temperature with standard cut-off filters for the fluorescein fluorophore (λₑₓ=485 nm; λₑₘ=530 nm) in 96-well black HE96 plates (Molecular Devices Corp.). Fluorescence polarization values were plotted as a function of the protein concentration, and the EC₅₀ values were obtained by fitting the data to a 4-parameter equation using Kaleidagraph™ software (Synergy software, Reading, Pa.). The apparent Kd values were determined from the EC₅₀ values.
(In general: Polarisation of emitted light reports the rotation of a fluorescent probe.)

For test [3], the target named is ΔCARD human caspase 9 (lacking the first 138 residues) with Ala substitutions at residues 304 to 306 (human) (UniProt P55211). Nature of the test: caspase-9 enzyme inhibition (Ac-LEHD-AFC hydrolysis), Ki(app); too low to measure accurately.
For test [4] the target is unchanged. Briefly: caspase-9 enzyme inhibition.
The target of test [5] is T2, ML-IAP-BIR (amino acids 63-179 of accession number BIR7_HUMAN), bacterially expressed from pET15b (human, UniProt Q96CA5 63-179).
T2 construct: range 63-179; Purified protein used in the fluorescence polarization assays; also called MLBIR; wild-type ML-IAP-BIR; not shown: N-terminal His6-tag from the pET15b vector
T2 sequence (looked up): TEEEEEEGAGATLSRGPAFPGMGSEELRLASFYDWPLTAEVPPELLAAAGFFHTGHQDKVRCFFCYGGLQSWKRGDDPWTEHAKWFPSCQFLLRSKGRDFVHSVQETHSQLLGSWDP
Nature of the test: fluorescence polarization competition against Hid-FAM probe. The protocol:
(§1) Samples were read after a 10-minute incubation. Fluorescence polarization values were plotted as a function of the antagonist concentration, and the IC₅₀ values were obtained by fitting the data to a 4-parameter equation using Kaleidagraph™ software (Synergy software, Reading, Pa.). Inhibition constants (Kᵢ) for the antagonists were determined from the IC₅₀ values (Keating et al., (2000) Putting the pieces together: contribution of fluorescence polarization assays to small-molecule lead optimization. Proceedings of SPIE: In-Vitro Diagnostic Instrumentation.).

For test [6], the target named is T3, MLBIR-Q (C-terminally truncated version of ML-IAP-BIR with the same number of amino acids as MLXBIR3 and … (human, UniProt Q96CA5 63-172)).
T3 construct: range 63-172; also called C-terminal truncated wild type; not shown: N-terminal His6-tag from the pET15b vector
T3 sequence (looked up): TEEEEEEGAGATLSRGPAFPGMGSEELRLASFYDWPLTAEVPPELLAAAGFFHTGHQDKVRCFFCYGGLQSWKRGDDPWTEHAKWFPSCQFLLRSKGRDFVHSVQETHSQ
The test is described as above. The protocol: as §1

The target in test [7] is B1. The test is described as above. The protocol: as §1
Test [8] concerns the target T4, XIAP-BIR3 (third BIR of XIAP, residues 252-348) (human, UniProt P98170 252-348).
T4 construct: range 252-348; No tags are stated; also called XIAP-BIR3 protein
Described as above. The protocol: as §1

Experimental findings from patent US20060246471A1 (published 2006) are described below.

Sequence of ΔCARD human caspase 9 (lacking the first 138 residues) with Ala substitutions at residues 304 to 306 (human) (P55211 139-416, stated change not applied): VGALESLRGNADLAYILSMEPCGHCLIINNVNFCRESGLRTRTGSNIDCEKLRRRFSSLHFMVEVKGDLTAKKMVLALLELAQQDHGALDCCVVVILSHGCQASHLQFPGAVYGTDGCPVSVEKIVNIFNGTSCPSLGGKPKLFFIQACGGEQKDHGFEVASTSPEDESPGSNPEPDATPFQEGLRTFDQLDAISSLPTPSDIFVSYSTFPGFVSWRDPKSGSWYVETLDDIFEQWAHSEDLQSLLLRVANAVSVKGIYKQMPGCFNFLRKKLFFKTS
T4 sequence (P98170 252-348 limits assumed): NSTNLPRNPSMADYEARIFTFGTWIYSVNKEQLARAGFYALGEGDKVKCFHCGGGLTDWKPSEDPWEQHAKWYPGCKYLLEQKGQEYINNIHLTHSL

Consider AVPW (also called AVPW (Hid)) [AVPW peptide], for which the IC50 (as a rule, the concentration that gives 50% inhibition) in test [1] turned out to be 150 nM.
In the case of B1, the Kd (commonly the concentration at which binding is half-saturated) in test [2] came out at 30 nM. Besides, the Ki in test [3] is below 1 nM.

B2: full-length ML-IAP plus a N-terminal His6-tag (protein, human, UniProt Q96CA5 1-298, looked up, not shown: small tags and cut ends)
chain: MGPKDSAKCLHRGPQPSHWAAGDGPTQERCGPRSLGSPVLGLDTCRAWDHVDGQILGQLRPLTEEEEEEGAGATLSRGPAFPGMGSEELRLASFYDWPLTAEVPPELLAAAGFFHTGHQDKVRCFFCYGGLQSWKRGDDPWTEHAKWFPSCQFLLRSKGRDFVHSVQETHSQLLGSWDPWEEPEDAAPVAPSVPASGYPELPTPRREVQSESAQEPGGVSPAEAQRAWWVLEPPGARDVEAQLRRLQEERTCKVCLDRAVSIVFVPCGHLVCAECAPGLQLCPICRAPVRSRVRTFLS
B2: the fold lower potency for inhibition of caspase-9 activity relative to XIAP in test [4] was determined as 300 fold.

B3: wild-type mature Smac protein (amino acids 56-239 of Smac/DIABLO, C-terminal His6 fusion) (other, human, UniProt Q9NR28 56-239, looked up)
chain: AVPIAQKSEPHSLSSEALMRRAVSLVTDSTSTFLSQTTYALIEAITEYTKAVYTLTSLYRQYTSLLGKMNSEEEDEVWQVIIGARAEMTSKHQEYLKLETTWMTAVGLSEMAAEAAYQTGADQASITARNHIQLVKLQVEEVHQLSRKAETKLAEAQIEELRQKTQEEGEERAESEQEAYLRED
notes: range 56-239; not shown: C-terminal His6 fusion from pet21b+
Consider B3, for which the Ki in test [5] is 26 nM; in test [6], 54 nM; in test [7], 59 nM; in test [8], 320 nM.
